Laboratory results reported in publication PMC5928161.

The substances below were run against FLAG-tagged a3 isoform of the V-ATPase a subunit (mouse) (UniProt Q9JHF5) (assay: co-immunoprecipitation (anti-FLAG IP, anti-V5 Western blot)). Details: HEK293T cells; intensity of V5-fused GTP-binding protein co-precipitated with a3 normalised to that of V5-Rab7.
Sequence of UniProt Q9JHF5 (Q9JHF5 entry or part of it): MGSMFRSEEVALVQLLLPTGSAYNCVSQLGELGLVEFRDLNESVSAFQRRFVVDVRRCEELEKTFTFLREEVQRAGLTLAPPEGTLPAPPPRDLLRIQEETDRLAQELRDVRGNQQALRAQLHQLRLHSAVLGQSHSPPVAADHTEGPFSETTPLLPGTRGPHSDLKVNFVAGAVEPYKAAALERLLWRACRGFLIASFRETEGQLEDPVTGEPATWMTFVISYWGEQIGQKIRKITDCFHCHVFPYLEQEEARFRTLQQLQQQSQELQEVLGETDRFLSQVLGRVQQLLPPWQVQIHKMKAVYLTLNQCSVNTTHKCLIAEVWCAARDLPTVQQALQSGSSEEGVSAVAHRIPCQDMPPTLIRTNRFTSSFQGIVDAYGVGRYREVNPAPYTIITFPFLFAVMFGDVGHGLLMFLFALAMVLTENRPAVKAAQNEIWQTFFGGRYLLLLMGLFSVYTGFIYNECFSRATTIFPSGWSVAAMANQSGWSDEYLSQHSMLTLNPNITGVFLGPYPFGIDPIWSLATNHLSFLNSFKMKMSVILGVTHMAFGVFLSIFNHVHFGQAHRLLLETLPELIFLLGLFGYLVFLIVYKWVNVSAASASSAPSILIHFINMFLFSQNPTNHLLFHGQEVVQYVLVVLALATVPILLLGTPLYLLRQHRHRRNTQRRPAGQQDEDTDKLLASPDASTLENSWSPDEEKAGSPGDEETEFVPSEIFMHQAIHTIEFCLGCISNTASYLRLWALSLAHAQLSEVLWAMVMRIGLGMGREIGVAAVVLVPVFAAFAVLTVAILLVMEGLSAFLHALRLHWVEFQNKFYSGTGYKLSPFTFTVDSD

| other: relative signal intensity | Substance |
| --- | --- |
| < 0.1 | H-Ras W C (substitution not printed) |
| < 0.1 | H-Ras W D (substitution not printed) |
| < 0.1 | Ran W C (substitution not printed) |
| < 0.1 | Ran W D (substitution not printed) |
